Assay results: article PMC8163800, “Extreme parsimony in ATP consumption by 20S complexes in the global disassembly of single SNARE complexes” (Nature Communications, 2021)

B1: N-ethylmaleimide sensitive factor (NSF), wild-type hexamer, P18708 1-744 (enzyme)
chain: MAGRSMQAARCPTDELSLSNCAVVSEKDYQSGQHVIVRTSPNHKYIFTLRTHPSVVPGSVAFSLPQRKWAGLSIGQEIEVALYSFDKAKQCIGTMTIEIDFLQKKNIDSNPYDTDKMAAEFIQQFNNQAFSVGQQLVFSFNDKLFGLLVKDIEAMDPSILKGEPASGKRQKIEVGLVVGNSQVAFEKAENSSLNLIGKAKTKENRQSIINPDWNFEKMGIGGLDKEFSDIFRRAFASRVFPPEIVEQMGCKHVKGILLYGPPGCGKTLLARQIGKMLNAREPKVVNGPEILNKYVGESEANIRKLFADAEEEQRRLGANSGLHIIIFDEIDAICKQRGSMAGSTGVHDTVVNQLLSKIDGVEQLNNILVIGMTNRPDLIDEALLRPGRLEVKMEIGLPDEKGRLQILHIHTARMRGHQLLSADVDIKELAVETKNFSGAELEGLVRAAQSTAMNRHIKASTKVEVDMEKAESLQVTRGDFLASLENDIKPAFGTNQEDYASYIMNGIIKWGDPVTRVLDDGELLVQQTKNSDRTPLVSVLLEGPPHSGKTALAAKIAEESNFPFIKICSPDKMIGFSETAKCQAMKKIFDDAYKSQLSCVVVDDIERLLDYVPIGPRFSNLVLQALLVLLKKAPPQGRKLLIIGTTSRKDVLQEMEMLNAFSTTIHVPNIATGEQLLEALELLGNFKDKERTTIAQQVKGKKVWIGIKKLLMLIEMSLQMDPEYRVRKFLALLREEGASPLDFD
B2: free NSF (NSF hexamer) (Cricetulus griseus) (protein)
chain: B1 chain
notes: N-terminal His-tag cut by thrombin, pET28a

Columns and labels:
[1] = biological target: SNARE–αSNAP complex on vesicles (rat | bovine), P60881
[2] = substrate: Nc1ncnc2c1ncn2[C@@H]1O[C@H](COP(=O)(O)OP(=O)(O)OP(=O)(O)O)[C@@H](O)[C@H]1O; assay: ATPase titration, phosphate release by MESG/PNP (ELIPA kit), Hill fit; assay type: biochemical, Cricetulus griseus; settings: Hill coefficient 0.58 ± 0.09, 5 mM MgCl2, 50 mM HEPES pH 7.4, 50 mM NaCl, 37 °C

Row | Binder | rate of ATP hydrolysis of WT NSF hexamers with soluble SNARE complex (300 nM) and αSNAP (1 μM) against free NSF [1] [fold] | K0.5 [2] [µM]
1 | B1 | 24 | –
2 | B2 | – | 9 ± 2
